From patent US20030211992A1 (published 2003)
Read-outs that look alike come from different tables or passages of the source. Positions of bridges follow the written chain, without caps; N, C: chain ends. No end group written: not given here.

What was measured:
human IGFBP-1 [1] = biological target: T1, human IGFBP-1 (human, UniProt P08833 26-259); assay: competitive phage ELISA
T1 construct: biotinylated in the ELISA formats; amine-coupled to the chip in peptide kinetics
T1 sequence (looked up): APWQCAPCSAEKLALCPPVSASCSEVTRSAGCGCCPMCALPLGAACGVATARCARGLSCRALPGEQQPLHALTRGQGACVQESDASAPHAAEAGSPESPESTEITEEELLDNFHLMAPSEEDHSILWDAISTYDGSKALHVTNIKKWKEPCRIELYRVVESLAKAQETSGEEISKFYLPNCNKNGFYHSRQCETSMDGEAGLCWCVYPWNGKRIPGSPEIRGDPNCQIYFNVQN

[2] = biological target: T2, recombinant human IGFBP-3 (human, UniProt P17936 28-291); assay: competitive phage ELISA
T2 construct: biotinylated and held on a streptavidin chip in the ALS experiment

human IGFBP-1 [3] = biological target: T1, human IGFBP-1; assay: competitive phage ELISA; remark: listed apart in the source
[4] = biological target: T2, recombinant human IGFBP-3; assay: competitive phage ELISA; remark: listed apart in the source
human IGFBP-1 [5] = biological target: T1, human IGFBP-1; assay: competitive phage ELISA; the reference itself
[6] = biological target: T2, recombinant human IGFBP-3; assay: competitive phage ELISA; the reference itself
[7] = biological target: T2, recombinant human IGFBP-3; assay: phage ELISA on IGFBP-3 plate, competitor IGF-1
Description: The plates were then washed ten times, as above, and a solution of rabbit anti-phage antibody mixed with a goat-anti-rabbit conjugate of horseradish peroxidase was added. After an incubation of 1 hour at room temperature, the plates were developed with a chromogenic substrate, o-phenylenediamine (Sigma). The reaction was stopped with addition of ½ volume of 2.5 M H₂SO₄. Optical density at 490 nm was measured on a spectrophotometric plate reader.
In each case, the phagemid clone was grown from a single colony overnight at 37° C. in a culture volume of 5 ml. The phage particles were precipitated and resuspended in 0.5 ml of PBS buffer.

human IGFBP-1 [8] = biological target: T1, human IGFBP-1; assay: BIAcore inhibition of IGFBP-1 binding to IGF-1
[9] = biological target: IGFBP-3/E3A/F49A IGF-1 binary complex (human) (UniProt P17936); assay: BIAcore, ALS dissociation from the IGFBP-3/IGF-1 complex
[10] = biological target: IGFBP-3/F49A IGF-1 binary complex (human) (UniProt P17936); assay: as above
human IGFBP-1 [11] = biological target: T1, human IGFBP-1; assay: stated with the explant experiment

T2 sequence (P17936 28-291 limits assumed): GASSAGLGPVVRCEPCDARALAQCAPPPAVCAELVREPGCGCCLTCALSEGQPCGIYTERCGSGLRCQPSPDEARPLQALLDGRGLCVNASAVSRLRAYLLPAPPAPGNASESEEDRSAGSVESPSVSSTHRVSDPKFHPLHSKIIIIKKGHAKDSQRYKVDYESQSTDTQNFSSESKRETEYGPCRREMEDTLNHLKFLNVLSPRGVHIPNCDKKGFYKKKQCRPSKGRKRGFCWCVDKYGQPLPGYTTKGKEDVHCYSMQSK
Sequence of IGFBP-3/E3A/F49A IGF-1 binary complex (human) (P17936 28-291, chain 1 of 2): as the sequence (P17936 28-291 limits assumed) above
Sequence of IGFBP-3/E3A/F49A IGF-1 binary complex (human) (chain, as listed by the source F49A F49A, chain 2 of 2): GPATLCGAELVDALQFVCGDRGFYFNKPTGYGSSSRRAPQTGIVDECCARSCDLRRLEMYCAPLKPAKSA
Sequence of IGFBP-3/F49A IGF-1 binary complex (human) (P17936 28-291, chain 1 of 2): as the sequence (P17936 28-291 limits assumed) above
Sequence of IGFBP-3/F49A IGF-1 binary complex (human) (chain, as listed by the source F49A F49A, chain 2 of 2): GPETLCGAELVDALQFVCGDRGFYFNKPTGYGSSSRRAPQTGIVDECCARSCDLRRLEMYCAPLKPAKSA

In the case of “IGF-1 G1S-A70V on phage (from UniProt P69168 267-424) (ligand)”, the IC50 (human IGFBP-1 [1]) is reported as 8.2 nM, the IC50 [2] is reported as 0.75 nM and the IC50 (human IGFBP-1 [3]) is reported as 8.5 nM. For the same molecule, the IC50 [4] was 0.5 nM, the relative IC50 (mut/G1S-A70V) (human IGFBP-1 [5]) was 1 and the relative IC50 (mut/G1S-A70V) [6] was 1.

B1: peptide-phage clone 4D3.11 (g8 display) (peptide)
chain: VAWEVCWDRHDQGYICTTDSGGGSGGGAEGDDPAKAAFNSLQASATEYIGYAWAMVVVIVGATIGIKLFKKFTSKAS
notes: polyvalent on M13 phage
B1 was tested, and the “% inhibition of phage binding by 100 nM IGF-1” value (“% inhibition of phage binding” below) [7] was 5%.

B2: peptide-phage clone 4D3.9 (g8 display) (peptide)
chain: ETVANCDCYMDLCLCYGSDRGGGSGGGAEGDDPAKAAFNSLQASATEYIGYAWAMVVVIVGATIGIKLFKKFTSKAS
notes: polyvalent on M13 phage
In the case of B2, the “% inhibition of phage binding” value [7] is reported as > 40%.

B3: peptide-phage clone 4C3.2 (g8 display) (peptide)
chain: ELDGWVCIKVGEQNLCYLAEGGGSGGGAEGDDPAKAAFNSLQASATEYIGYAWAMVVVIVGATIGIKLFKKFTSKAS
notes: polyvalent on M13 phage
With B3 the “% inhibition of phage binding” value [7] was > 40%.

B4: peptide-phage clone 4D3.12 (g8 display) (peptide)
chain: AEWAECWIAGDQLLCVGKDNGGGSGGGAEGDDPAKAAFNSLQASATEYIGYAWAMVVVIVGATIGIKLFKKFTSKAS
notes: polyvalent on M13 phage
In the case of B4, the “% inhibition of phage binding” value [7] is reported as > 40%.

With Ac-LEWLAEKYFE (linker 2-10 via 1,5‑diaminopentane) [(i+8)A] the fold potency reduction against BP1-01 (human IGFBP-1 [8]) was > 200.

B5: peptide-phage clone 4D3.8 (g8 display) (peptide)
chain: SEEVCWPVAEWYLCNILGPGGGSGGGAEGDDPAKAAFNSLQASATEYIGYAWAMVVVIVGATIGIKLFKKFTSKAS
notes: polyvalent on M13 phage
In the case of B5, the “% inhibition of phage binding” value [7] is reported as > 40%.

B6: human acid-labile subunit (protein, UniProt P35858 28-605, looked up)
chain: ADPGTPGEAEGPACPAACVCSYDDDADELSVFCSSRNLTRLPDGVPGGTQALWLDGNNLSSVPPAAFQNLSSLGFLNLQGGQLGSLEPQALLGLENLCHLHLERNQLRSLALGTFAHTPALASLGLSNNRLSRLEDGLFEGLGSLWDLNLGWNSLAVLPDAAFRGLGSLRELVLAGNRLAYLQPALFSGLAELRELDLSRNALRAIKANVFVQLPRLQKLYLDRNLIAAVAPGAFLGLKALRWLDLSHNRVAGLLEDTFPGLLGLRVLRLSHNAIASLRPRTFKDLHFLEELQLGHNRIRQLAERSFEGLGQLEVLTLDHNQLQEVKAGAFLGLTNVAVMNLSGNCLRNLPEQVFRGLGKLHSLHLEGSCLGRIRPHTFTGLSGLRRLFLKDNGLVGIEEQSLWGLAELLELDLTSNQLTHLPHRLFQGLGKLEYLLLSRNRLAELPADALGPLQRAFWLDVSHNRLEALPNSLLAPLGRLRYLSLRNNSLRTFTPQPPGLERLWLEGNPWDCGCPLKALRDFALQNPSAVPRFVQAICEGDDCQPPAYTYNNITCASPPEVVGLDLRDLSEAHFAPC
Work on B6 yielded a koff [9] of 0.0004 s⁻¹ and a koff [10] of 0.00042 s⁻¹.

CRAGPLQWLCEKYF-NH2 (disulfide 1-10 (inferred)) [BP1-16]: binds (human IGFBP-1 [11]).
